Here are results for 2 molecules from US6207419A, “Thrombin inhibitory agents and methods of using same” (The University of North Carolina at Chapel Hill, priority 1999, dated 2001).

Experiment [1] deals with T1, plasma purified α-thrombin (Homo sapiens, UniProt P00734).
T1 construct: Human α-thrombin, HCII, and ATIII were purified in our laboratory from plasma; from tissue; host or cells: human plasma (purified in the authors' laboratory)
The experiment can be described thus: Thrombin inhibition in the presence of glycosaminoglycans (heparin or dermatan sulfate). Conditions: for maximal rate of thrombin inhibition in the presence of heparin: heparin at optimal concentration. Type of experiment: biochemical. As to the method: Protease inhibition rates were determined as described previously (Rogers, S. J., Pratt, C. W., Whinna, H. C., and Church, F. C. (1992) J. Biol. Chem. 267(6), 3613-3617; Whinna, H. C., Choi, H. U., Rosenberg, L. C., and Church, F. C. (1993) J. Biol. Chem. 268, 3920-3924; Ciaccia, A. V., Cunningham, E. L., and Church, F. C. (1995) Protein Express. Purific. 6, 806-812; Ciaccia, A. V., Willemze, A. J., and Church, F. C. (1997) J. Biol. Chem. 272(2), 888-893). All assays were performed at room temperature in 96-well microtiter plates previously coated with 2 mg/mL BSA.
In the presence of glycosaminoglycans, 5 nM rHCII (wt, CHis6, CHis5 Pro, L444R, or L444R-CHis6) was incubated with 0.5 nM thrombin and 0-1 mg/mL heparin or 0-4 mg/mL dermatan sulfate or 10 nM rATIII (wt or CHis6) was incubated with 1 nM thrombin or factor Xa and 0-1 mg/mL heparin in the presence of 2 mg/mL BSA in HNPN, pH 7.4.
Residual thrombin activity was measured with 150 μM GlyProArg-NA and 1 mg/mL pB in the absence of glycosaminoglycan, 2 mg/mL pB in the presence of heparin and 4 mg/mL in the presence of dermatan sulfate. Residual factor Xa activity was measured with 500 μM Spectrozyme FXa and 2mg/mL pB in the presence or absence of glycosaminoglycan. Residual chymotrypsin activity was measured with 150 μM AlaAlaProPhe-NA and residual trypsin activity was measured with 150 μM GlyProArg-NA. Substrate cleavage was measured by color development at […] on a Vmax Kinetic Microplate Reader (Molecular Devices).
Assays were performed at least in triplicate on two or more recombinant protein preparations. All inhibition studies were measured under pseudo-first order conditions where inhibitor [I] is at least ten-fold higher than enzyme (protease) [E], and second-order rate constants were calculated as described previously (Ciaccia, A. V., Cunningham, E. L., and Church, F. C. (1995) Protein Express. Purific. 6, 806-812; Ciaccia, A. V., Willemze, A. J., and Church, F. C. (1997) J. Biol. Chem. 272(2), 888-893).

The subject of a further experiment is thrombin. The experiment can be described thus: Thrombin inhibition in the absence of glycosaminoglycan. It counts as biochemical, human. As to the method: All assays were performed at room temperature in 96-well microtiter plates previously coated with 2 mg/mL BSA.
(§1) Residual thrombin activity was measured with 150 μM GlyProArg-NA and 1 mg/mL pB in the absence of glycosaminoglycan, 2 mg/mL pB in the presence of heparin and 4 mg/mL in the presence of dermatan sulfate. Residual factor Xa activity was measured with 500 μM Spectrozyme FXa and 2mg/mL pB in the presence or absence of glycosaminoglycan. Residual chymotrypsin activity was measured with 150 μM AlaAlaProPhe-NA and residual trypsin activity was measured with 150 μM GlyProArg-NA.
(§2) Assays were performed at least in triplicate on two or more recombinant protein preparations.

The nature of experiment [2]: Heparin-Sepharose affinity chromatography. It counts as binding. Conditions: NaCl gradient, 20 mM Hepes pH 7.4. As to the method:
100 μL of each fraction was aliquoted onto a 96-well microtiter plate and ELISA was performed. The peak elution ionic strength was determined by plotting 405 nm color development and NaCl concentration against the fraction number. All samples were run at least in triplicate using two or more protein preparations. Recombinant ATIII samples were run similarly to the HCII samples, except the elution gradient was run from 50 mM to 2 M NaCl.

For another experiment, the target named is T2, α-thrombin (Homo sapiens, UniProt P00734).
T2 construct: Human α-thrombin, HCII, and ATIII were purified in our laboratory from plasma; from tissue; host or cells: human plasma (purified in the authors' laboratory)
The experiment can be described thus: Effect of hirugen on thrombin inhibition in the absence of glycosaminoglycan. Type of experiment: biochemical. As to the method: as §1, §2

Experiment [3] deals with plasma-purified α-thrombin. The experiment can be described thus: Thrombin inhibition with heparin before and after carboxypeptidase A digest. It counts as biochemical, human. Conditions: 2 hr, room temperature, FIG. 3. Here is the method:
Forty ng of CPA was combined with approximately 1 μg of recombinant protein and incubated at room temperature. Following a 2-hr incubation at room temperature, 2 mM EDTA was added to quench CPA activity. Controls were run in which EDTA was added to the reaction prior to the addition of CPA. CPA digested proteins were then assayed according to previously mentioned procedures.

B1: rHCII-L444R-CHis6: HCII mutant that contains both L444R and a hexahistidine carboxyl tag (protein, UniProt P05546 20-499, looked up, variant L444R)
Heparin cofactor 2: GSKGPLDQLEKGGETAQSADPQWEQLNNKNLSMPLLPADFHKENTVTNDWIPEGEEDDDYLDLEKIFSEDDDYIDIVDSLSVSPTDSDVSAGNILQLFHGKSRIQRLNILNAKFAFNLYRVLKDQVNTFDNIFIAPVGISTAMGMISLGLKGETHEQVHSILHFKDFVNASSKYEITTIHNLFRKLTHRLFRRNFGYTLRSVNDLYIQKQFPILLDFKTKVREYYFAEAQIADFSDPAFISKTNNHIMKLTKGLIKDALENIDPATQMMILNCIYFKGSWVNKFPVEMTHNHNFRLNEREVVKVSMMQTKGNFLAANDQELDCDILQLEYVGGISMLIVVPHKMSGMKTLEAQLTPRVVERWQKSMTNRTREVLLPKFKLEKNYNLVESLKLMGIRMLFDKNGNMAGISDQRIAIDLFKHQGTITVNEEGTQATTVTTVGFMPRSTQVRFTVDRPFLFLIYEHRTSCLLFMGRVANPSRS
modifications: C-terminal His6 tag
As to B1, the “dermatan sulfate concentration at maximal rate of thrombin inhibition” value in experiment [1] (dermatan sulfate) is ~ 200 μg/mL. For the same molecule, the “maximal rate of thrombin inhibition in the presence of dermatan sulfate” value in experiment [1] (dermatan sulfate at optimal concentration) is reported as 8.81±0.20×10^8 M^-1 min^-1. In experiment [1], the “heparin concentration at maximal rate of thrombin inhibition” value was ~ 20 μg/mL and the “maximal rate of thrombin inhibition in the presence of heparin” value was 2.47±0.35×10^8 M^-1 min^-1. Further, in the experiment on thrombin, the “rate of thrombin inhibition in the absence of glycosaminoglycan” value is on record as 1.59±0.26×10^6 M^-1 min^-1 and the “rate of thrombin inhibition relative to rHCII-CHis6” value is given as ~ 100 fold. Further, the “rate of thrombin inhibition compared in words with the untagged serpin” value in the experiment with thrombin (comparator rHCII-L444R or wt-rATIII as in sentence) was “not significantly different”. The “Heparin-Sepharose [NaCl], peak elution concentration” value in experiment [2] is listed as 600 mM. Moreover, the “effect of hirugen on thrombin inhibition, in words” value in the experiment with α-thrombin (hirugen 20 μM, absence of glycosaminoglycan) is given as “less of an effect”. The “rate constant of inhibition (k2) in the absence of peptide” value in the experiment with α-thrombin (no hirugen, no control peptide, FIG. 5) amounted to 35300 M⁻¹ s⁻¹.

B2: rHCII-CHis5 Pro: Recombinant HCII mutant with a His5 Pro carboxyl-terminal tag; SEQ ID NO:7 (protein)
chain: MKHSLNALLIFLIITSAWGGSKGPLDQLEKGGETAQSADPQWEQLNNKNLSMPLLPADFHKENTVTNDWIPEGEEDDDYLDLEKIFSEDDDYIDIVDSLSVSPTDSDVSAGNILQLFHGKSRIQRLNILNAKFAFNLYRVLKDQVNTFDNIFIAPVGISTAMGMISLGLKGETHEQVHSILHFKDFVNASSKYEITTIHNLFRKLTHRLFRRNFGYTLRSVNDLYIQKQFPILLDFRTKVREYYFAEAQIADFSDPAFISKTNNHIMKLTKGLIKDALENIDPATQMMILNCIYFKGSWVNKFPVEMTHNHNFRLNEREVVKVSMMQTKGNFLAANDQELDCDILQLEYVGGISMLIVVPHKMSGMKTLEAQLTPRVVERWQKSMTNRTREVLLPKFKLEKNYNLVESLKLMGIRMLFDKNGNMAGISDQRIAIDLFKHQGTITVNEEGTQATTVTTVGFMPLSTQVRFTVDRPFLFLIYEHRTSCLLFMGRVANPSRSHHHHHP
modifications: His5 Pro C-terminal tag
Regarding B2, in experiment [1], the “heparin concentration at maximal rate of thrombin inhibition” value was 10 µg/mL and the “maximal rate of thrombin inhibition in the presence of heparin” value is 1.87±0.37×10^9 M^-1 min^-1. In addition, the “change of heparin-dependent thrombin inhibition after CPA digest, in words” value in experiment [3] is “does not change appreciably”. Also, in the experiment with thrombin, the “rate of thrombin inhibition in the absence of glycosaminoglycan” value worked out at 32000 M⁻¹ min⁻¹ and the “rate of thrombin inhibition relative to wt-rHCII” value is ~ 2 fold.
